From patent publication US5614192A, “T cell receptor peptides as therapeutics for immune-related disease” (Connective Therapeutics, Inc., priority 1993, dated 1997)
Several values for one entry are separate records, joined by “and”; a condition that tells them apart may be missing. Identical values can stand only once. Like-named read-outs stand apart in the source and are kept apart here. Ends that are not written are not given here.

Key:
T cell immunity = T cell immunity / DH response induced by peptide; format: in vivo; conditions: Lewis rats
Excerpt: Immunogenicity of peptides useful in the present invention can be screened by well-known methods, such as use of a DH response in an animal. In such a response, an animal is "sensitized" by injection of an appropriate dose of an antigen, typically subcutaneously (SC), frequently with an adjuvant, such as complete Freund's adjuvant (CFA). Generally about 5-15 days later, the response is "elicited" by challenging the animal, typically intradermally (ID), with an appropriate dose of the antigen, typically in saline or other buffer. The response is assessed 24-48 hours later. […]
The desired peptides, with sequences determined as described above, are prepared using standard synthesis techniques including solution and solid phase sequential amino acid conjugation and recombinant production in prokaryotic or eukaryotic hosts. Verification that the peptide prepared is immunogenic can easily be determined using a DH reaction in an animal (e.g., mouse or rat), as described above. […] The ear swelling response, measured 24 or 48 hours after challenge, serves as a simple and reliable measure of the presence of T cell-mediated immunity to the peptide.

EAE [1] = assay: Prevention of EAE by immunization with TCR peptide (Example VI); format: in vivo, Lewis rats; conditions: Lewis rats
Excerpt: EAE is a well-recognized rat model of the human autoimmune disease, multiple sclerosis. […] In this model, the disease is induced by injecting the subject rat with an encephalitogenic form of myelin basic protein, such as, for example, guinea pig basic protein (GPBP) or a synthetic peptide that corresponds to residues 72-89 of GPBP (GPBP(72-89)). Injection of either of these peptides in complete Freund's adjuvant (CFA) induces encephalitogenic T cell clones that utilize preferentially the rat homologs of mouse TCR Vα2 and Vβ8 genes (Chou, Y. K., et al., J. Neurosci. Res. 22:181-187 (1989); Burns, F. R., et al., J. Exp. Med. 169:27-39 (1989)).
^1 EAE was induced by SC challenge with 50 μg GPBP + 400 μg
^2 Rats were injected SC with either: (1) 100 μg of the TCR peptid
^3 Values represent the mean of the maximum severity of EAE. 0, no

[2] = system: lymph node cells and Vβ8-44-54 selected T cell line
clone C455-69 = assay: Proliferation response of clone C455-69 to BP peptides (Table 28); format: cell-based, rat
Protocol: Proliferation assays: Proliferation assays were performed in 96-well microtiter plates. 2×10^4 T cells and 10^6 irradiated thymocytes/well were incubated with stimulation medium only, ConA, or antigen at 37C in 7% CO2. The cultures were incubated for 72 h, the last 18 h in the presence of 0.5 Bq ^3 H-Tdr. The cells were harvested onto glass fiber filters and TCR uptake was assessed by liquid scintillation. Mean CPM wre calculated from triplicate wells. The standard deviation from replicate wells varied <10% from the mean values.
the homologous RtBP sequence. Five μg/ml ConA or 50 μg/ml of each

[3] = system: T cell lines derived from rats protected from EAE; assay: Proliferation of LN cells and T cell lines from rats protected by TCR Vβ8 peptide (Table 12); format: cell-based, rat
[4] = system: LN cells and T cell lines; assay: Proliferation of LN cells and lines from rats protected by transfer of TCR Vβ8 peptide-specific T cells (Table 15); format: cell-based, rat
Protocol: ^1 Lymph node (LN) cells were collected 20 days after simultaneous
^2 LN cells were tested directly (NL column).
^3 T cell lines were selected from these LN cells by culture with TCR

popliteal LN cells = assay: Proliferation of LN cells after EAE induction and TCR peptide treatment (Table 23); format: cell-based, Lewis rats
Protocol: The proliferative responses and specificity of T cells in the draining LN (popliteal) of rats treated with TCR Vβ8(39-59) peptide for EAE on day 13 after disease induction were examined (Table 23). On day 0, Lewis rats received an EAE-inducing regimen of GP-BP+CFA SC into their hind footpads. […] On day 20, about 7 days after onset of EAE, popliteal LNs were removed and T cell proliferative activity in response to the indicated antigens or mitogens were tested directly.
Results are shown as net ^3 Hthymidine incorporation of 5 ×

peptide-selected T cells = assay: Proliferation of peptide-selected T cells after in vivo TCR peptide treatment (Table 24); format: cell-based, Lewis rats
Excerpt: LN cells from control rats responded best to Con A, PPD, GPBP and GPBP (72-89), and GPBP (45-89) (which includes the 72-89 sequence and another immunogenic but non-encephalitogenic peptide). […] LN cells from rats treated ID with the TCR peptide esponded similarly to the control cells, with the exception of a reduced response to GPBP (72-89). […] An aliquot of each of the above 3 groups of LN cells was stimulated in culture with either GPBP or with the TCR peptide for 3 days, and the cells expanded in IL-2 for 5 more days. The proliferative responses to the various antigens and mitogens of these selected T cells were examined, as above.

LNC and T cell lines = assay: T cell proliferation after treatment of EAE with TCR Vβ8 39-59/CFA (Table 27); format: cell-based, rats
Protocol: Lymphocyte Proliferation: Activation of T cells was measured by ^3 H-Tdy uptake. 500,000 lymph node cells or 20,000 line cells in the presence of 1 million irradiated thymic accessory cells were incubated with culture medium and antigens in microtiter wells for 18 hours prior to the addition of 0.5 μBq labeled thymidine. The cell cultures were harvested onto glass fiber filters and counted by liquid scintillation techniques. Mean CPM were calculated from triplicate cultures. Standard deviations (SD) from replicate cultures varied <10% from the mean value.
^a Treated rats were injected s.q. with 50 μg TCR Vβ839-59
^b LW cells collected after the untreated group recovered from EAE

EAE [5] = assay: Prevention and suppression of EAE by immunization with TCR Vβ8(39-59) (Table 17); format: in vivo, Lewis rats; conditions: antigen alone, day 0 (no TCR peptide)
EAE [6] = assay: Prevention, suppression and treatment of EAE with TCR Vβ8-39-59 peptide (Table 25); format: in vivo, Lewis rats; conditions: GP-BP/CFA only
DTH response = assay: Delayed hypersensitivity responses to TCR peptides, ear swelling (Table 26); format: in vivo, Lewis rats
[7] = system: clones C372-89 and C455-69; assay: Coculture of clones C372-89 and C455-69, proliferation (Table 31); format: cell-based, rat
Protocol: 50 μg of antigen was added to 10,000 cells of each clone stimulated in […]

[8] = 50 μg/ml peptide (5 μg/ml ConA), 20,000 clone C455-69 cells, 3 days
[9] = 1st value column (head not given; LN cells of protected rats)
[10] = 2nd value column (head not given, TCR Vβ8(39-59)-selected line)
[11] = 4th value column (head not given; mixed TCR- and BP-specific T cells)
[12] = Treated rats (TCR Vβ8 39-59/CFA at onset), LNC
[13] = Untreated rats (GPBP/CFA only), LNC
[14] = A. TCR Vβ8 peptide-specific T cell transfer
[15] = 50 μg antigen, 10,000 cells, 3 days

KQNNNHNNMYWYRQDMG [Vβ8 (25-41)]
induction of T cell immunity (T cell immunity): does not induce T cell immunity
protection from EAE (EAE [1]): does not protect Lewis rats from EAE
Response of Lymph Node Cells [2]: 14 ± 0
Response of T Cell Line [2]: 6 ± 1

APKRGSGKDSH HAARTTH (APKRGSGKDSHHAARTTH) [43-67, Gp-BP fragment 43-67 (printed from residue 50)]
Response CPM/1000 ± S.D. (clone C455-69; [8]): 249 ± 12 CPM/1000

SGKDSH HATRTTHYGSLPQK [55-74 modified]
Response CPM/1000 ± S.D. (clone C455-69; [8]): 150 ± 15 CPM/1000

LRLIHYSYDVN [Vβ8-44-54, LRLIHYSYDVN]
inhibition of T cell response ([2]; 72 h): 76%

APKRGSGKDSH HAARTTHYG (APKRGSGKDSHHAARTTHYG) [50-69]
Response CPM/1000 ± S.D. (clone C455-69; [8]): 277 ± 14 CPM/1000

Concanavalin A [Con A, reference compound]
T Cell Proliferation [3]: 99 and 96 and 80 and 123
Proliferation, TCR Peptide Selected Line [4]: 46
T Cell Proliferation (popliteal LN cells): 85 and 78 and 146
Proliferative response (peptide-selected T cells): 76 and 52 and 68 and 95
Response CPM/1000 ± S.D. (clone C455-69): 229 ± 15
Response of Lymph Node Cells [2]: 293 ± 39
Response of T Cell Line, percent (in parentheses) [2]: 88% and 93% and 106%

B1: Rat BP: rat myelin basic protein (protein, UniProt P02688 2-195, looked up)
Myelin basic protein: ASQKRPSQRHGSKYLATASTMDHARHGFLPRHRDTGILDSIGRFFSGDRGAPKRGSGKVPWLKQSRSPLPSHARSRPGLCHMYKDSHTRTTHYGSLPQKSQRTQDENPVVHFFKNIVTPRTPPPSQGKGRGLSLSRFSWGAEGQKPGFGYGGRASDYKSAHKGFKGAYDAQGTLSKIFKLGGRDSRSGSPMARR
T Cell Proliferation [3, 9]: 11 cpm × 10^-3
T Cell Proliferation [3, 10]: 1 cpm × 10^-3
T Cell Proliferation [3, 11]: 9 cpm × 10^-3
T Cell Proliferation ([3]; GPBP-selected line): 9 cpm × 10^-3
Proliferative response (peptide-selected T cells; day 13 inj. Control, selection with GPBP): 46
Proliferative response (peptide-selected T cells; day 13 inj. TCR Vβ 8(39-59) + CFA, selection with GPBP): 14
Proliferative response (peptide-selected T cells; day 13 inj. TCR Vβ 8(39-59) + CFA, selection with Vβ 8(39-59)): 4
Proliferative response (peptide-selected T cells; day 13 inj. TCR Vβ 8(39-59) ID, selection with CPBP (so in the source)): 36
Proliferation (LNC and T cell lines; [12]): 49 ± 2 CPM/1000
Proliferation (LNC and T cell lines; Treated rats, line BP/1st): 14 ± 2 CPM/1000
Proliferation (LNC and T cell lines; Treated rats, line Vβ8/1st): 4 ± 1 CPM/1000
Proliferation (LNC and T cell lines; [13]): 40 ± 2 CPM/1000
Proliferation (LNC and T cell lines; Untreated rats, line BP/1st): 46 ± 3 CPM/1000
Proliferation (LNC and T cell lines; Untreated rats, line Vβ8/1st): 11 ± 4 CPM/1000
Response CPM/1000 ± S.D. (clone C455-69; [8]): 0.2 ± 0.1 CPM/1000

B2: GPBP: guinea pig basic protein, encephalitogen (protein, UniProt P25188 1-167, looked up)
Myelin basic protein: ASQKRPSQRHGSKYLATASTMDHARHGFLPRHRDTGILDSIGRFFGSDRAAPKRGSGKDSHHAARTTHYGSLPQKSQRSQDENPVVHFFKNIVTPRTPPPSQGKGRGLSLSRFSWGAEGQKPGFGYGGRADYKSKGFKGAHDAQGTLSKIFKLGGRDSRSGSPMARR
T Cell Proliferation [3, 9]: 16 cpm × 10^-3
T Cell Proliferation [3, 10]: 3 cpm × 10^-3
T Cell Proliferation [3, 11]: 102 cpm × 10^-3
T Cell Proliferation ([3]; GPBP-selected line): 93 cpm × 10^-3
Proliferation, GPBP Selected Line [4, 14]: 16 cpm × 10^-3
Proliferation, TCR Peptide Selected Line [4, 14]: 0 cpm × 10^-3
Proliferation, LN ([4]; A. rats given 3 × 10^7 TCR Vβ8 peptide-specific T cells + GPBP/CFA, LN cells day 20): 80 cpm × 10^-3
Proliferation, GPBP Selected Line ([4]; B. Saline + GPBP/CFA): 65 cpm × 10^-3
Proliferation, LN ([4]; B. Saline + GPBP/CFA): 32 cpm × 10^-3
Clinical Score (EAE [5]): 3.1 ± 0.6
T Cell Proliferation (popliteal LN cells; LN cells day 20 of Control rats (saline day 13)): 49 cpm × 10^-3
T Cell Proliferation (popliteal LN cells; LN cells of rats given TCR Vβ 8(39-59) 50 μg ID day 13): 44 cpm × 10^-3
T Cell Proliferation (popliteal LN cells; LN cells of rats given TCR Vβ 8(39-59) 100 μg SC (in CFA) day 13): 50 cpm × 10^-3
Duration (EAE [6]): 6.6 ± 0.9 days
EAE/TOTAL (EAE [6]): 26/26
Max Clin. Signs (EAE [6]): 3.4 ± 0.2
Onset (EAE [6]): 12
48 Hour DTH Response (DTH response; GP-BP/CFA immunized rats, ear test Day 12 (EAE onset)): 35 ± 5
48 Hour DTH Response (DTH response; Normal or saline/CFA rats, ear test Day 12): 5 ± 3
net proliferation of reactive cells (LNC and T cell lines; GP-MBP-selected line from TCR peptide-treated rats): 12,000 CPM
net proliferation of reactive cells (LNC and T cell lines; GP-MBP-selected line from untreated EAE-recovered rats): 84,000 CPM
Proliferation (LNC and T cell lines; [12]): 50 ± 7 CPM/1000
Proliferation (LNC and T cell lines; Treated rats, line BP/1st): 29 ± 6 CPM/1000
Proliferation (LNC and T cell lines; Treated rats, line Vβ8/1st): 6 ± 1 CPM/1000
Proliferation (LNC and T cell lines; [13]): 49 ± 5 CPM/1000
Proliferation (LNC and T cell lines; Untreated rats, line BP/1st): 99 ± 9 CPM/1000
Proliferation (LNC and T cell lines; Untreated rats, line Vβ8/1st): 23 ± 2 CPM/1000
Proliferation (LNC and T cell lines; Untreated rats, line Vβ14/1st): 11 ± 1 CPM/1000
Response CPM/1000 ± S.D. (clone C455-69; [8]): 203 ± 7 CPM/1000
Proliferation, C372-89 [7, 15]: 40 ± 3 CPM/1000
Proliferation, C455-69 [7, 15]: 50 ± 9 CPM/1000
Proliferation, C372-89 + C455-69 ([7]; coculture, 10,000 cells of each clone): 91 ± 12 CPM/1000
